This data set is described as follows: protein stability index of a GFP-peptide fusion (GPS, HEK-293T) (PSI 1-6); higher = more stable. To be noted: c terminus: a fixed tail appended.

± gives the standard deviation.
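Further: 24-mer peptide tiles fused after GFP, lentivirally expressed, FACS-sorted into six equal bins by GFP/DsRed ratio, decoded by Illumina sequencing, PSI is the read-weighted mean bin number.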

EKEQEKMRQDLEEERVALNTEIEK [PKD2L1]: the protein stability index runs as follows: (treatment: DMSO) 5.45 ± 0.27; (treatment: MLN4924 1 uM, 8 h) 5.64 ± 0.15.
In the case of ATLPGIFMLLLIFFAFLHCWLNAF [SOAT2], the protein stability index runs as follows: (treatment: DMSO) 2.46 ± 0.5; (treatment: MLN4924 1 uM, 8 h) 2.3 ± 0.36.
The matching figures for KLSSFYSLKLIKRLYVDKSLNLST [SERPINB5]: 2.46 ± 0.42 and 2.18 ± 0.36.
In the case of LRALGAQIEKTTNREACRDLSGRR [SDE2], the protein stability index is, setting by setting: (treatment: DMSO) 4.21 ± 0.15; (treatment: MLN4924 1 uM, 8 h) 4.48 ± 0.26.
The corresponding values for LVRDWSFPYEYSYGLQGGMAFLDK [ATL3] are 1.96 ± 0.23 and 2.19 ± 0.38.
As to SNQIPTEVRSKAEEVVSFVKKNVL [FUNDC2], the protein stability index runs as follows: (treatment: DMSO) 3.59 ± 0.32; (treatment: MLN4924 1 uM, 8 h) 3.73 ± 0.18.
Sequence IAKNLVEKGILTTEKQNFLLFDMT [GOLPH3L] came in with a protein stability index (treatment: DMSO) of 2.06 ± 0.18 and a protein stability index (treatment: MLN4924 1 uM, 8 h) of 2.15 ± 0.22.
For the sequence ADDESETPEELEEEIPVVICAAAG [GLT8D2], the protein stability index runs as follows: (treatment: DMSO) 5.582 ± 0.029; (treatment: MLN4924 1 uM, 8 h) 5.5 ± 0.35.
Take CTRDCMSFSVLNWDQVSRLHEVLT [TENT5C]: the protein stability index runs as follows: (treatment: DMSO) 2.13 ± 0.35; (treatment: MLN4924 1 uM, 8 h) 2.37 ± 0.23.
With VPAAGGPAPKRGYSSEMKTEDELR [AUH], the protein stability index was 5.53 ± 0.68 (treatment: DMSO) and 5.9 ± 0.071 (treatment: MLN4924 1 uM, 8 h).
AINRDTAFPGASHESSGNPPLRVI [RHOBTB3]: the protein stability index turned out to be 3.44 ± 0.049 (treatment: DMSO) and 3.47 ± 0.29 (treatment: MLN4924 1 uM, 8 h).
The corresponding values for ALSGKYSREFFNRRGELRHITKLK [SRPK2] are 2.87 ± 0.15 and 3.28 ± 0.27.
Consider HTDIKPENILMCVDDAYVRRMAAE [SRPK2], for which the protein stability index came out at 4 ± 0.22 (treatment: DMSO) and 4.07 ± 0.27 (treatment: MLN4924 1 uM, 8 h).
The corresponding values for GEPLEKVASVGNSRPTGQQLESLG [KISS1] are 5.04 ± 0.25 and 5.1 ± 0.13.
Regarding DSQRVASVSLDRCIKIWDVTSQAT [WDR88], the protein stability index (treatment: DMSO) was determined as 3.1 ± 0.22 and the protein stability index (treatment: MLN4924 1 uM, 8 h) was 3.12 ± 0.17.
Regarding CRGHTLERSVFSERTEESSAVQYF [CARM1], the protein stability index reads like this: (treatment: DMSO) 2.81 ± 0.34; (treatment: MLN4924 1 uM, 8 h) 2.92 ± 0.5.
For AHQQKKHSGFEDELSEVLENQSSQ [CHGA], the protein stability index runs as follows: (treatment: DMSO) 5.28 ± 0.26; (treatment: MLN4924 1 uM, 8 h) 5.25 ± 0.34.
The matching figures for VCALCPVLGAHRGHPVGLALEAAV [TRIM14]: 2.57 ± 0.34 and 2.37 ± 0.6.
Take KNIFRIRFHDPSPAQSHTLQANDV [NET1]: the protein stability index is, setting by setting: (treatment: DMSO) 2.76 ± 0.31; (treatment: MLN4924 1 uM, 8 h) 3.06 ± 0.24.
SKAHLEKVRSYVKRALAEGAQIWC [ALDH8A1]: the protein stability index (treatment: DMSO) came to 3.23 ± 0.73 and the protein stability index (treatment: MLN4924 1 uM, 8 h) was found to be 3.19 ± 0.56.
As to EKLKVAPPNADLEQGFQEGVPNAS [MFF], the protein stability index (treatment: DMSO) was determined as 5.28 ± 0.17 and the protein stability index (treatment: MLN4924 1 uM, 8 h) turned out to be 5.22 ± 0.17.
Take CRGNQHDVPVIPLDVVDNQTEKLD [CASP6]: the protein stability index by setting is: (treatment: DMSO) 5.05 ± 0.26; (treatment: MLN4924 1 uM, 8 h) 5.03 ± 0.13.
GDLSPGHGASAPSVSREARQTVPP [PWWP2B]: the protein stability index came out at 5.03 ± 0.17 (treatment: DMSO) and 5.25 ± 0.077 (treatment: MLN4924 1 uM, 8 h).
For KTAGKENHFDMHRVGKWHQDFPVK [ZNF75A], the protein stability index is 3.09 ± 0.36 (treatment: DMSO) and 3.38 ± 0.13 (treatment: MLN4924 1 uM, 8 h).
As to LRQQLVVSKELRMYDEKAHEWKSL [KLHL13], the protein stability index runs as follows: (treatment: DMSO) 2.93 ± 0.11; (treatment: MLN4924 1 uM, 8 h) 2.98 ± 0.15.
Take QSMSEEEREKVTPLMVKGFRDAAE [SEPHS2]: the protein stability index by setting is: (treatment: DMSO) 5.01 ± 0.27; (treatment: MLN4924 1 uM, 8 h) 4.88 ± 0.24.
The matching figures for AVQRLEGALWGLQAQAVQTEQAVA [SCARA5]: 2.89 ± 0.19 and 3.01 ± 0.34.
The corresponding values for GTGLVLDEQLNEFHCLWDDSFPEG [HDAC6] are 4.12 ± 0.34 and 3.96 ± 0.16.

The values are drawn from the supplement of paper PMC10567573.
